Reference: the RNAGym collection of RNA variant scans (doi:10.1093/molbev/msab373)

B1: Azoarcus group I ribozyme (parent)
chain: GUGCCUUGCGCCGGGAAACCACGCAAGGGAUGGUGUCAAAUUCGGCGAAACCUAAGCGCCCGCCCGGGCGUAUGGCAACGCCGAGCCAAGCUUCGGCGCCUGCGCCGAUGAAGGUGUAGAGACUAGACGGCACCCACCUAAGGCAAACGCUAUGGUGAAGGCAUAGUCCAGGGAGUGGCGAAAGUCACACAAACCGG

Variants of: B1
Assay: reverse-splicing fitness (ratio to wild type); higher = more active; in vitro selection; Mg2+ level not given
In short: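 An in vitro group I ribozyme library with randomized positions was T7-transcribed and gel-purified. In triplicate, 10 pmol RNA in EPPS pH 7.5 was reacted with 50 pmoles of a 30-nt RNA substrate for 1 h at 37 °C across several added MgCl2 levels (1–48 mM), then stopped with EDTA. Products were reverse transcribed from a substrate-complementary primer, PCR-amplified and sequenced (HiSeq 4000). Fitness is a variant's read proportion after selection over that before, normalised to wild type.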
A120C A145G C150A C169U U176G showed a reverse-splicing fitness of 0.00697. For A120C A145G C150A U176A, the reverse-splicing fitness was 0.263. A120C A145G C150A U176C gave a reverse-splicing fitness of 0.271. Work on A120C A145G C150A U176G yielded a reverse-splicing fitness of 0.0729. A120C A145G C150G gave a reverse-splicing fitness of 0.234. Variant A120C A145G C150G C169A has a reverse-splicing fitness of 0.0119. Work on A120C A145G C150G C169A U176A yielded a reverse-splicing fitness of 0.0131. A120C A145G C150G C169A U176C gave a reverse-splicing fitness of 0.0132. With A120C A145G C150G C169A U176G the reverse-splicing fitness was 0.00789. Variant A120C A145G C150G C169G has a reverse-splicing fitness of 0.00987. For A120C A145G C150G C169G U176A, the reverse-splicing fitness was 0.00996. Work on A120C A145G C150G C169G U176C yielded a reverse-splicing fitness of 0.0135. In the case of A120C A145G C150G C169G U176G, the reverse-splicing fitness is reported as 0.00533. In the case of A120C A145G C150G C169U, the reverse-splicing fitness is reported as 0.108. A120C A145G C150G C169U U176A showed a reverse-splicing fitness of 0.0149. A120C A145G C150G C169U U176C gave a reverse-splicing fitness of 0.0406. For A120C A145G C150G C169U U176G, the reverse-splicing fitness was 0.00611. A120C A145G C150G U176A showed a reverse-splicing fitness of 0.0905. In the case of A120C A145G C150G U176C, the reverse-splicing fitness is reported as 0.146. Variant A120C A145G C150G U176G has a reverse-splicing fitness of 0.019. Work on A120C A145G C150U yielded a reverse-splicing fitness of 0.781. Variant A120C A145G C150U C169A has a reverse-splicing fitness of 0.0324. A120C A145G C150U C169A U176A showed a reverse-splicing fitness of 0.0167. Work on A120C A145G C150U C169A U176C yielded a reverse-splicing fitness of 0.0196. A120C A145G C150U C169A U176G showed a reverse-splicing fitness of 0.00444. In the case of A120C A145G C150U C169G, the reverse-splicing fitness is reported as 0.0232. In the case of A120C A145G C150U C169G U176A, the reverse-splicing fitness is reported as 0.014. Work on A120C A145G C150U C169G U176C yielded a reverse-splicing fitness of 0.0182. For A120C A145G C150U C169G U176G, the reverse-splicing fitness was 0.004. In the case of A120C A145G C150U C169U, the reverse-splicing fitness is reported as 0.432. Variant A120C A145G C150U C169U U176A has a reverse-splicing fitness of 0.125. A120C A145G C150U C169U U176C gave a reverse-splicing fitness of 0.186. With A120C A145G C150U C169U U176G the reverse-splicing fitness was 0.0092. Work on A120C A145G C150U U176A yielded a reverse-splicing fitness of 0.626. Variant A120C A145G C150U U176C has a reverse-splicing fitness of 0.566. Variant A120C A145G C150U U176G has a reverse-splicing fitness of 0.179. Variant A120C A145G C169A has a reverse-splicing fitness of 0.0366. In the case of A120C A145G C169A U176A, the reverse-splicing fitness is reported as 0.0215. A120C A145G C169A U176C showed a reverse-splicing fitness of 0.024. A120C A145G C169A U176G gave a reverse-splicing fitness of 0.00471. For A120C A145G C169G, the reverse-splicing fitness was 0.0256. A120C A145G C169G U176A showed a reverse-splicing fitness of 0.0155. In the case of A120C A145G C169G U176C, the reverse-splicing fitness is reported as 0.022. A120C A145G C169G U176G showed a reverse-splicing fitness of 0.00382. For A120C A145G C169U, the reverse-splicing fitness was 0.47. A120C A145G C169U U176A showed a reverse-splicing fitness of 0.153. For A120C A145G C169U U176C, the reverse-splicing fitness was 0.185. For A120C A145G C169U U176G, the reverse-splicing fitness was 0.015. Variant A120C A145G U176A has a reverse-splicing fitness of 0.707. A120C A145G U176C showed a reverse-splicing fitness of 0.652. For A120C A145G U176G, the reverse-splicing fitness was 0.212. Variant A120C A145U has a reverse-splicing fitness of 0.886. Work on A120C A145U C150A yielded a reverse-splicing fitness of 0.215. A120C A145U C150A C169A showed a reverse-splicing fitness of 0.00801. A120C A145U C150A C169A U176A gave a reverse-splicing fitness of 0.0124. Variant A120C A145U C150A C169A U176C has a reverse-splicing fitness of 0.00632. Variant A120C A145U C150A C169A U176G has a reverse-splicing fitness of 0.00377. Variant A120C A145U C150A C169G has a reverse-splicing fitness of 0.00666. For A120C A145U C150A C169G U176A, the reverse-splicing fitness was 0.00974. Variant A120C A145U C150A C169G U176C has a reverse-splicing fitness of 0.0105. In the case of A120C A145U C150A C169G U176G, the reverse-splicing fitness is reported as 0.00376. In the case of A120C A145U C150A C169U, the reverse-splicing fitness is reported as 0.0832. For A120C A145U C150A C169U U176A, the reverse-splicing fitness was 0.0459. Variant A120C A145U C150A C169U U176C has a reverse-splicing fitness of 0.0562. Variant A120C A145U C150A C169U U176G has a reverse-splicing fitness of 0.0079. In the case of A120C A145U C150A U176A, the reverse-splicing fitness is reported as 0.191. Variant A120C A145U C150A U176C has a reverse-splicing fitness of 0.179. Variant A120C A145U C150A U176G has a reverse-splicing fitness of 0.0668. For A120C A145U C150G, the reverse-splicing fitness was 0.262. Variant A120C A145U C150G C169A has a reverse-splicing fitness of 0.00905. Variant A120C A145U C150G C169A U176A has a reverse-splicing fitness of 0.0113. Work on A120C A145U C150G C169A U176C yielded a reverse-splicing fitness of 0.00821. For A120C A145U C150G C169A U176G, the reverse-splicing fitness was 0.0044. In the case of A120C A145U C150G C169G, the reverse-splicing fitness is reported as 0.00781. For A120C A145U C150G C169G U176A, the reverse-splicing fitness was 0.00633. For A120C A145U C150G C169G U176C, the reverse-splicing fitness was 0.00537. In the case of A120C A145U C150G C169G U176G, the reverse-splicing fitness is reported as 0.00367. In the case of A120C A145U C150G C169U, the reverse-splicing fitness is reported as 0.107. A120C A145U C150G C169U U176A showed a reverse-splicing fitness of 0.0184. In the case of A120C A145U C150G C169U U176C, the reverse-splicing fitness is reported as 0.0535. Variant A120C A145U C150G C169U U176G has a reverse-splicing fitness of 0.00515. With A120C A145U C150G U176A the reverse-splicing fitness was 0.137. For A120C A145U C150G U176C, the reverse-splicing fitness was 0.156.
